Key:
[1] = tested on: endogenous AHAS genes (three homoeologous copies); experiment: transient assay of ZFN-mediated NHEJ-directed AHAS editing in biolistically transfected scutella; assay type: cell-based, Triticum aestivum; settings: for Editing Frequency (ppm): NHEJ, scutella; for molecular evidence for ZFN-mediated NHEJ-directed gene editing: samples of SEC protoplasts and scutella, with pDAB109350 (pDAS000149, pDAS000150 also pDAB109360)
Description: (§1) The first type of donor design was a linear, double stranded DNA molecule comprising 41-bp of sequence that shared no homology with the endogenous AHAS genes in wheat. Two donor DNA molecules were designed, each to target the three homoeologous copies of the AHAS gene. Both donor DNA molecules had protruding 5′ and 3′ ends to provide ligation overhangs to facilitate ZFN-mediated NHEJ-directed DNA repair. The two donor DNA molecules differed by the sequence at their protruding 3′ end. The first donor DNA molecule, pDAS000152 (SEQ ID NO:74 and SEQ ID NO:75), was designed to provide ligation overhangs that were compatible with those generated by cleavage of the endogenous AHAS genes by ZFNs 29732 and 29730 (encoded on plasmid pDAB109350) and to result in the insertion of the 41-bp donor molecule into the endogenous AHAS gene at the site of the double strand DNA break via NHEJ-directed DNA repair. The second donor DNA molecule pDAS000149 (SEQ ID NO: 76 and SEQ ID NO:77) was designed to provide ligation overhangs that were compatible with those generated by the dual cleavage of the endogenous AHAS genes by ZFNs 29732 and 29730 (encoded on plasmid pDAB109350) and ZFNs 30012 and 30018 (encoded on plasmid pDAB109360) and to result in the replacement of the endogenous AHAS sequence contained between the two double strand DNA breaks created by the ZFNs with the 41-bp donor molecule via NHEJ-directed DNA repair.
(§2) The second type of donor was a plasmid DNA vector containing 41-bp of sequence that shared no homology with the endogenous AHAS genes in wheat and that was flanked on either side by sequence that was recognized by the ZFN(s) used to create double strand DNA breaks in the endogenous AHAS genes. This donor design allowed in planta release of the unique 41-bp sequence from the plasmid DNA molecule by the same ZFN(s) used to cleave target sites in the endogenous AHAS genes, and simultaneous generation of protruding ends that were suitable for overhang ligation of the released 41-bp sequence into the endogenous AHAS genes via NHEJ-directed DNA repair. Two plasmid donor DNA molecules were designed, each to target the three homoeologous copies of the AHAS gene. The first plasmid donor molecule, pDAS000153 (SED ID NO:78 and SEQ ID NO:79) (FIG. 8), was designed to provide ligation overhangs on the released 41-bp DNA fragment that were compatible with those generated by cleavage of the endogenous AHAS genes by ZFNs 29732 and 29730 (encoded on plasmid pDAB109350). The second plasmid donor molecule, pDAS000150 (SEQ ID NO:80 and SEQ ID NO:81) (FIG. 9), was designed to provide ligation overhangs on the released 41-bp DNA fragment that were at one end compatible with those generated by ZFNs 29732 and 29730 (encoded on plasmid pDAB109350) and at the other end compatible with those generated by ZFNs 30012 and 30018 (encoded on plasmid pDAB109360). This design allowed the replacement of the endogenous AHAS sequence contained between the two double strand DNA breaks created by ZFNs 29732 and 29730 and ZFNs 30012 and 30018 with the 41-bp donor molecule sequence.
(§3) Seedlings of the donor wheat line were grown in an environment controlled growth room maintained at 18/16° C. (day/night) and a 16/8 hour (day/night) photoperiod with lighting provided at […]. Wheat spikes were collected at 12-14 days post-anthesis and were surface sterilized by soaking for 1 min in 70% (v/v) ethanol. The spikes were threshed and the immature seeds were sterilized for 15 min in 17% (v/v) bleach with gentle shaking, followed by rinsing at least three times with sterile distilled water. The embryos were aseptically isolated from the immature seeds under a dissecting microscope. The embryonic axis was removed using a sharp scalpel and discarded. The scutella were placed into a 9 cm PETRI™ dish containing osmotic MS (E3 maltose) medium, with the uncut scutellum oriented upwards. A total of 20 scutella were plated onto each 9 cm PETRI™ dish. […]

[2] = tested on: endogenous AHAS genes (three homoeologous copies); experiment: transient assay of ZFN-mediated NHEJ-directed AHAS editing in PEG-transfected SEC protoplasts; assay type: cell-based, Triticum aestivum; settings: SEC protoplast
Description: as §1, §2
as §3, with “2-4 medium without TIMENTIN™,” for “osmotic MS (E3 maltose) medium,”, “25” for “20”

[3] = wheat sub-genome A, ZFN 29732-2A-29730, ratio 5:1
[4] = wheat sub-genome A, ZFN 29732-2A-29730, ratio 10:1
[5] = wheat sub-genome A, ZFN n/a (donor only), average of three biological replicates
[6] = wheat sub-genome B, ZFN 29732-2A-29730, ratio 5:1
[7] = wheat sub-genome B, ZFN 29732-2A-29730, ratio 10:1
[8] = wheat sub-genome B, ZFN n/a (donor only)
[9] = wheat sub-genome D, ZFN 29732-2A-29730, ratio 5:1
[10] = wheat sub-genome D, ZFN 29732-2A-29730, ratio 10:1
[11] = wheat sub-genome D, ZFN n/a (donor only)
[12] = wheat sub-genome A, ZFN 29732-2A-29730, ratio 20:1
[13] = wheat sub-genome B, ZFN 29732-2A-29730, ratio 20:1
[14] = wheat sub-genome D, ZFN 29732-2A-29730, ratio 20:1

B1: pDAS000150: plasmid donor with 41-bp sequence flanked by sites for ZFNs 29732/29730 and 30012/30018; SEQ ID NO:80, 81 (nucleic acid)
chain 1: TGGATATCATAGTCCCGCATCAGGAGCACGTGCTGCCTATGATCCCAAGCGGTGGTGCTTTCAAGGACATGATCATGGGTTAGGTGCTGGTGGTCCGAAGGTCCACGCCGCCAACTACGGATGGCAGGACCTCGTACTGAAATTTCGACCTACAAGACCTACAAGTGTGACATGCGCAATCAGCATGATGCCCGCGT
chain 2: ACGCGGGCATCATGCTGATTGCGCATGTCACACTTGTAGGTCTTGTAGGTCGAAATTTCAGTACGAGGTCCTGCCATCCGTAGTTGGCGGCGTGGACCTTCGGACCACCAGCACCTAACCCATGATCATGTCCTTGAAAGCACCACCGCTTGGGATCATAGGCAGCACGTGCTCCTGATGCGGGACTATGATATCCA
modifications: pDAS000150
For B1, the “Editing Frequency (ppm)” value [1, 3] was 1 ppm, the “Editing Frequency (ppm)” value [1, 4] was 0 ppm and the “Editing Frequency (ppm)” value [1, 5] was 0 ppm. The “Editing Frequency (ppm)” value [1, 6] was 0 ppm, the “Editing Frequency (ppm)” value [1, 7] was 0 ppm and the “Editing Frequency (ppm)” value [1, 8] was 0 ppm. The “Editing Frequency (ppm)” value [1, 9] was 4 ppm, the “Editing Frequency (ppm)” value [1, 10] was 0 ppm and the “Editing Frequency (ppm)” value [1, 11] was 0 ppm. The “molecular evidence for ZFN-mediated NHEJ-directed gene editing” value [1] was “Limited evidence”, the “Editing Frequency (ppm)” value [2, 3] was 0 ppm and the “Editing Frequency (ppm)” value [2, 4] was 0 ppm. The “Editing Frequency (ppm)” value [2, 12] was 0 ppm, the “Editing Frequency (ppm)” value [2, 5] was 0 ppm and the “Editing Frequency (ppm)” value [2, 6] was 0 ppm. The “Editing Frequency (ppm)” value [2, 7] was 0 ppm, the “Editing Frequency (ppm)” value [2, 13] was 0 ppm and the “Editing Frequency (ppm)” value [2, 8] was 0 ppm. For the same molecule, the “Editing Frequency (ppm)” value [2, 9] was 0 ppm, the “Editing Frequency (ppm)” value [2, 10] was 0 ppm and the “Editing Frequency (ppm)” value [2, 14] was 0 ppm. For the same molecule, the “Editing Frequency (ppm)” value [2, 11] was 0 ppm.

B2: pDAS000153: plasmid donor with 41-bp sequence flanked by ZFN 29732/29730 sites; SEQ ID NO:78, 79 (nucleic acid)
chain 1: TGGATATCATAGTCCCGCATCAGGAGCACGTGCTGCCTATGATCCCAAGCGGTGGTGCTTTCAAGGACATGATCATGGGTTAGGTGCTGGTGGTCCGAAGGTCCACGCCGCCAACTACGTGGATATCATAGTCCCGCATCAGGAGCACGTGCTGCCTATGATCCCAAGCGGTGGTGCTTTCAAGGACATGATCATGG
chain 2: CCATGATCATGTCCTTGAAAGCACCACCGCTTGGGATCATAGGCAGCACGTGCTCCTGATGCGGGACTATGATATCCACGTAGTTGGCGGCGTGGACCTTCGGACCACCAGCACCTAACCCATGATCATGTCCTTGAAAGCACCACCGCTTGGGATCATAGGCAGCACGTGCTCCTGATGCGGGACTATGATATCCA
modifications: pDAS000153
With B2 the “Editing Frequency (ppm)” value [1, 3] was 4 ppm, the “Editing Frequency (ppm)” value [1, 4] was 0 ppm and the “Editing Frequency (ppm)” value [1, 5] was 0 ppm. For the same molecule, the “Editing Frequency (ppm)” value [1, 6] was 0 ppm, the “Editing Frequency (ppm)” value [1, 7] was 0 ppm and the “Editing Frequency (ppm)” value [1, 8] was 0 ppm. The “Editing Frequency (ppm)” value [1, 9] was 0 ppm, the “Editing Frequency (ppm)” value [1, 10] was 0 ppm and the “Editing Frequency (ppm)” value [1, 11] was 0 ppm. For the same molecule, the “molecular evidence for ZFN-mediated NHEJ-directed gene editing” value [1] was “poor evidence”, the “Editing Frequency (ppm)” value [2, 3] was 0 ppm and the “Editing Frequency (ppm)” value [2, 4] was 0 ppm. The “Editing Frequency (ppm)” value [2, 12] was 0 ppm, the “Editing Frequency (ppm)” value [2, 5] was 0 ppm and the “Editing Frequency (ppm)” value [2, 6] was 0 ppm. For the same molecule, the “Editing Frequency (ppm)” value [2, 7] was 0 ppm, the “Editing Frequency (ppm)” value [2, 13] was 0 ppm and the “Editing Frequency (ppm)” value [2, 8] was 0 ppm. The “Editing Frequency (ppm)” value [2, 9] was 0 ppm, the “Editing Frequency (ppm)” value [2, 10] was 0 ppm and the “Editing Frequency (ppm)” value [2, 14] was 0 ppm. For the same molecule, the “Editing Frequency (ppm)” value [2, 11] was 0 ppm.

Reference: US10501748B2, “Methods and compositions for integration of an exogenous sequence within the genome of plants” (Dow AgroSciences LLC, priority 2013, dated 2019)
